Experimental findings from a protein production outcome set (Wang et al. 2014) are described below.

The nature of the data set: label from the status in PepcDB records.
“MPIGSAMSRIATSSPGHDALSDRERAVAEKFAAGLTYREIGEALFIAPSTVRTHLASIYDKLGVRNKVALASHINGAIGAGMDGPPRLPGASPVLAIFPIECQTSEERWRRFADGLSSDITIDLARYADLPVIAFHTMKSLGSKPADFAADGKALGATYVVSGQLRADERRVRLSIELADADNGVSLWSERYDRQVEDIFALQDSLTETVINVIAGSYGALATVGRKAIRRKPPASLRAYDCYLLGVEQQDTFSRAGIAEAIRLFSRALELDPTLVRAWTALAYAYSIEGANGFGDDAQVSIENWRTAVENAILLDPMDSVACNCLGDLRGCLGDLEGAERAYRRAFEYGSNHADTLAMLAGSKALVAGDPAEAMPLIERAMHLNPLAPPWYFGMLGRILFTLGRHREAIAALCRSTLNSPNVLLFLALAHTSVGEAAEAARIEARLKTEFADFSVERFITCYPVTNPDAVHAIRHAAQQLARRD”: the protein production result is reported as “failed”.

Regarding “MPIIELVILLACLVLLSNVLSHYLVAIPVSLIQVGLGLGVALLLNVQVKLQTDWFMLVFIAPMLYNDGREFPKQELWELRGAIFANAIVLVFITTILGGFLIHVLIPTIPLAVGIALAAILSPTDPIAVQSISEGVKLPKEILHLVSGESLINDASGLIGFKYALAAAVTGTFVLGEAVGDFFYISLVGLAVGLALITIIQLIRDVLRREGINDIVFNVVLQILTPFAIYFIAEEWFHASGVVAVVAAGVLSHLQNSHESEDAPELRLVTERVWNVVVYLLNGIVFLILGIELPAATQATIKGAHTNTFHAVFDVLIVWGILLLIRVAWTYAYMLFNWLRHHKKAKPSLRIAALSGLSGVRGAITMAGVFTIPTVVASGKAFPERALVLFIAAGVIIVSLVAAAAILPLMAAKSLPFVTRGSSPDEDDAVLAEGTDDGDDSSGQLPQLTYKQARIYILQLAIQNIEEHRRPANQRAAYDLILDQQFQIRRLEVASQTADELAPMLTDELELRLVALNGERAAVREMIANKQTSKLAGQVYLRRVDRREQRFLQATHRQGLPTLRSLRLLLTRAMQGIRLWLAPGDSEELRVALLDIQREASKAAIKALSQYLKQANVDEQQFDRQALYHLIVHYRNRIENAKNDHTLSRDDYEQQLHGLRIKSLGAERAGVQHLLESGQISLRTAAKLRQFINYSENLLMLNDIEADED”, the protein production entry is “failed”.

With “MPIIKTLTKATKLEKEKFTIPKSVQDAIPIQRIWPDGIFQVGSRFSKTFSFTDINYSIASKDDKTAMFLDYSELLNALDSGASAKITIHNRRIDKAQFEKSLLLPMREDGLDHFRREYNEMLLSKVTGTNNSVVQDRYITITVAKRNIDEARTYFSRVGTDLINHLSQLSSVGRELDAAARLQLFRDFFKGSEPAAFAFDLREHMKKGHSFKDWLCPDSMEFQKDHFRIDERWGRVLYLQDYATYIKDSMIAELCDMDRSLMLAIDVLPVPTDEAVREIQNKLLGVETNAANWQRKQNAANNFSAVLPYDMEQQRKETKEMLDDLTNRDQRMMFGLVTLVHLADTKEQLDSDTETILTVARKHLCQMSTLRWQQKDGLDTVLPYGLRKIHALRTLTTESTAVLIPFRAQEILQGGGIYYGQNAVSKNMIVADRRKLLNGNSFRLGVSGSGKSFSAKEEIVSIALSTDDDILILDPESEFGFLTEALGGEVIRVSASSDTHINALDMDKAYGDERNPLIEKSEFILSLFEQLVGAGGVSAKEKSILDRCTYDVYREYMANNYQGEVPTLKDLYQSLLKQPEPEARGLALSSELFITGSLNTFAQPTNVDTKARIIAYDIRELGEQLMPIGMLVTLDAIFNRVIQNWKKGKTTWVFADEFYLLFRYQYSADFFYKLWKRIRKYNGLVTGLTQNVEELLRSDTARLMLANSEFLILLNQSPTDRDELAGLLHISDTQLGYITNVSAGCGLIRCAGNIVPFENSFPRNTRLYQLMTTKPDEALRGVLEHHHHHH”, the protein production entry was “failed”. Then “MPILTISGSPSAPSRSARLLGHVRAQLERAGESADHLDLRALPADALLGAQTAHPAIAEALARVAAAGVVILATPVYQAAYSGLLKTFLDLLPQSGLRDKVVLPIATGGSLAHTLAIDYALRPVLSSLAARVILPGIFAADAQIGAADDGFAVDPALQQRLDDGIERVHQAIALARHPAVAQVIVASRRTVRSAFQAHANAQATDAQQRMRCPA”, with “failed”; and “MPINQPSGQIKLTNVSLVRLKKARKRFEVACYQNKVQDYRKGIEKDLDEVLQIHQVFMNVSKGLVANKEDLQKCFGTTNVDDVIEEIMHKGEIQLSEKERQLMLNKVNNEMLTIVSAKCINPVSKKRYPPTMIHKALQELKFSPVINKPAKLQALEAIKLLVSKQIIPIVRAKMKVKVAISEPSRQPELIEKISKLIASSPGESTKPELDPWTCTGLIDPVNYRDLMTLCDKKGTVQVLDMAVIDNTTHN”, with “failed”. With “MPINTPENISDNTSETSPELLHFNQLNLPPALLTRLDEIGYQQMTPVQSLSLPVILNNTDAVVRADTGSGKTTAFALTLLAKLEAKSFSPQALVLCPTRELAHQVADEVRKLAKSMLNIKILTLCGGEPSRIQTNSLEHGAHVLVGTPGRVLDHLEQRNVDLSMLTTLVLDEADRMLEMGFQDSLNAIVKHIPKTRQTLLFSATYPKNIAALAEQVTTKARNIEAIQEQAKPQIEQLFYAMNNEDSAQLVMNLLGDHQPENCLVFCNTKNEVKDIFNTLRANKFSVLALHGELEQKDRDQAIIQFSNGSARVLIATDVASRGLDIAELDLVISVNMAHDLDTHTHRIGRTGRAGKEGVAITLIAEKDDYKMRLLEDTFAEPIQVKPAPALSNNRPLKANMSTIQVSGGKKDKLRPGDIVGALTKDNVLSADDIGKIKLESTFGFVAVNSRLAKHALGLINNNKIKGKKFRAKVL”, the protein production entry was “failed”.

In the case of “MPIRGFHYRGDEAIYPASVVKLFYLVAALEWLQQGMIQPSAELDRALRDMIVDSSNDATGYIVDLLSGTTSGPELGDGPFKTWQFQRNIVNRYYQSLMWPELQPINVNQKTWGDGPYGRERAFYGPEFENRNKLTTNATARLLHAIAGGVAVSPSASQRMLNLLNRPFDPRSLAEDPENQVTGFLGQDLPQGSQLWSKAGWMSRVRHDAAYLEIPGLPPHLLVAFTEGKEHANNEAILPFIAQQVRQQLQPALEHHHHHH”, the protein production entry is “failed”. In the case of “MPITSSSETFASFFNDWLCRHRQFVQQLAHLADETTIVTPIEEESLVSNFLSHYLQYYEEKSVAMSVAGDDIYDFFSPPWLSSYEKLILWIGGFKPGMVFKLITTSVNDLTSHQIDQLESIRLETKRRERDLMRRFALLQQSVGDPLLMVPFRRIGVLRLGEGEQPEMEDAMEVLKVEMIKAMKNADQLRCVTVGKVVEVLNPRQSIKLLRAAGEFYLRLRDLGV”, the protein production result is on record as “failed”.

For the sequence “MPKERVDVLAYKQGLFNTREQAKRGVMAGLVVNVINGERYDKPGEKIDEATELKLKGDKLKYVSRGGLKLEKALKVFVISVDGQITLDIGASTGGFTDVMLQNGAQLVYAVDVGTNQLVWKLRQDERVCSMEQYNFRYAEPSDFERGQPTFASIDVSFISLNLILPALSKILTDGGQVVALIKPQFEAGREQIGKHGIVKDKSVHETVLETVTTFATNYGFTVKELDFSPIQGGHGNIEFLAYLEKSAQAQNQVLTKIKSIVEQAHKEFKKNEET”, the protein production result is reported as “not failed”. For the sequence “MPKKPLIDQLHHEDSWRLFRILAEFVEGFETLSELQVPLVSVFGSARFGEGHPAYEAGYRLGRALAEAGFGVVTGGGPGVMEAVNRGAYEAGGVSVGLNIELPHEQKPNPYQTHALSLRYFFVRKVLFVRYAVGFVFLPGGFGTLDELSEVLVLLQTEKVHRFPVFLLDRGYWEGLVRWLAFLRDQKAVGPEDLQLFRLTDEPEEVVQALKAEAPPR”, the protein production result is recorded as “not failed”. In the case of “MPKLPLLLSFPLLFFASFAYADEDFVTCYSVLKFINANDGSRLHSHDVKYGSGSGQQSVTAVKNSDDINSHWQIFPALNAKCNRGDAIKCGDKIRLKHLTTGTFLHSHHFTAPLSKQHQEVSAFGSEAESDTGDDWTVICNGDEWLESEQFKLRHAVTGSYLSLSGQQFGRPIHGQREVVGTDSITGGSAWKVAEGIYIKHQQKDL”, the protein production entry was “not failed”. Turning to “MPKLSLIIATFNDAIGLARCLDSIEQQTVRADCEVLVFDNASSDGTVELLQGWSDRLTYWESERDRGIYHAWNKAIARASGDYVAFVGADDYYASPTALQQLLELTVGQPDLVSGRNAYYSPEGKFLRTWGYAWDWQRMRESMILSHPGLLMRRSLFDRIGLFDERFRICGDYDWLLRLPPDLKAVHTNQVILCLSMGGLSNTRISRVFAETFQAQRRQPDLGRWRSGVYWLINWLKFGRRKLIGLA”, the protein production result is reported as “failed”.
